Experiment [1] deals with Human CD138 His (human) (UniProt P18827). As to the kind of experiment: SPR (BioRad Proteon), CD138 His immobilized, bivalent analyte fit.
Experiment [2] has the same target. The experiment can be described thus: SPR, summary table.

Where “and” joins values, the source holds several entries; their conditions need not be identical. Identical values can stand only once.

Sequence of Human CD138 His (human) (P18827 23-254 limits assumed): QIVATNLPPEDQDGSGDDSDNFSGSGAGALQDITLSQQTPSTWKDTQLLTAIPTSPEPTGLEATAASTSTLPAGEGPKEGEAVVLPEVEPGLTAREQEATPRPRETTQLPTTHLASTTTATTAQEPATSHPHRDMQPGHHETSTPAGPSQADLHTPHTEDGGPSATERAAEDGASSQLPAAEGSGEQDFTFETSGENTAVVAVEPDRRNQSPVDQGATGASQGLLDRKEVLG

Turning to mBT062 (antibody), in the experiment with Human CD138 His (human) [1], the Kd is 1.95 nM and 2 nM; the koff turned out to be 0.000666 s⁻¹; the kon is 342000 M⁻¹ s⁻¹. In the experiment with Human CD138 His (human) [2], this substance returned a Kd of 2 nM.

Source of the values: patent US20220249679A1, “BI-SPECIFIC BINDING AGENTS TARGETING SYNDECAN-1 AND FIBROBLAST GROWTH FACTOR RECEPTOR” (Mitsubishi Tanabe Pharma Corporation, priority 2018, published 2022).
